Data as given in publication PMC9621694 (2022).

Columns and labels:
Test in all cases: SPR
rsvfv_hal_1 = molecular target: rsvfv_hal_1
rsvfv_hal_3 = molecular target: rsvfv_hal_3
rsvfv_hal_2 = molecular target: rsvfv_hal_2

B1: neutralizing antibody hRSV90 (antibody, V domains shown)
VH: EVQLVESGGGLVQPRRSLRLSCAASGFTFDDYTIHWVRQAPGKGLEWVSGITWNSGYIGYADSVKGRFTISRDNARNSLYLQMNSLRAEDTALYYCVRDAYVSGSDYYYYGLDVWGRGTLVTVSS
VL: EIVMTSSPATLSVSPGERVTLFCRASQSVISNLAWYQQKSGQAPRLLIYGASTRATGIPSRFSGSGSGTEFTLTISSLQSEDFAVYFCQQYNNWPLTFGGGTQVNVQ
- Kd (rsvfv_hal_1): 900 nM
- Kd (rsvfv_hal_3): 1300 nM
- Kd (rsvfv_hal_2): 1000 nM
